The test addresses T1, Lhx3 LIM1+2 as it stands in the tethered complex Ldb1-Lhx3 (mouse, UniProt P50481-1 28-153).
T1 construct: Lhx3 (LIM homeobox protein 3), mouse, both LIM domains, residues 28-153; source: part of the tethered Ldb1-Lhx3 chain
T1 sequence (looked up): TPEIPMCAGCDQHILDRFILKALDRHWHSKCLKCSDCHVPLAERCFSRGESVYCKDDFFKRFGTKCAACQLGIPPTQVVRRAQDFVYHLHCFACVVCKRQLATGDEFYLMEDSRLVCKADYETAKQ
Put plainly: SAXS; Ldb1-Lhx3 tethered complex at 4.5 mg mL^-1 in 20 mM Na2HPO4, 40 mM NaCl, 1 mM DTT, pH 6.8, 283 K; mass from I(0), Guinier analysis, DAMMIF and BUNCH modelling. To be noted: both partners purified.

B1: Ldb1LID as it stands in the tethered complex Ldb1-Lhx3 (domain or fragment, mouse, UniProt P70662-3 300-339, looked up)
chain: DVMVVGEPTLMGGEFGDEDERLITRLENTQFDAANGIDDE
notes: numbers count on: isoform P70662-3; source: part of the tethered Ldb1-Lhx3 chain
Regarding B1, the binding result is “binds”.

For the origin of these results see PMC3405102, “Solution Structure of the LIM-Homeodomain Transcription Factor Complex Lhx3/Ldb1 and the Effects of a Pituitary Mutation on Key Lhx3 Interactions” (PLoS ONE, 2012).
